Experiment: yeast display, Sf9 membrane polyspecificity reagent, FACS + sequencing; frameworks hold sequencing errors
Procedure, shortened: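 Polyreactivity labels are assigned by the sorting gate from which each nanobody was recovered. The gates were low and high (top ~1%), set on anti-HA fluorescence for expression and streptavidin fluorescence for reagent binding. Before sorting, galactose-induced (36–48 hours) yeast display cells were stained for 1 hour at 4 °C with 10% biotinylated, detergent-solubilized Sf9 membrane reagent.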

Row | Sequence | polyreactivity (PSR sort gate)
1 | QVQLVESGGGLVQAGGSLRLSCAASGRIFPSNVMGWYRQAPGKERELVASISARGGSTYYADSVKGRFTISRDNAKNTGYLQMNSLKPEDTAVYYCHKRRSNGYSQHKLDYWGQGTQVTVSS | low polyreactivity
2 | QVQLVESGAGLVQAGGSILLICAASGLTFYKNAMGWYRQAPAKERELVAVISSSGGSTYYADSVKGRFTISRDNAKNTVYLQMNSLKPEDTAVYYCARDLFTEYRWGLLTYDYWGQGTQVTVSS | low polyreactivity
3 | QVQLVESGGGLVQAGGSLRLSCAASGSIFELNAMGWYRQAPGKERELVAAITSSGSSTYYADSVKGRFTISRDNAKNTVYLQMNSLKPEDTAVYYCFRPHDYWGQGTQVTVSS | low polyreactivity
4 | QVQLVESGGGLVQAGGSLRLSCAASGITFALNAMGWYRQAPGKERELVAAIRWGGDSTYYADSVKGRFTISRDNAKNTVYLQMNSLKPEDTAVYYCAAYGPRTLDYWGQGTQVTVSS | high polyreactivity
5 | QVQLVESGGGLVQAGGSLRLSCAASGTIYVTNGMGWYRQAPGKERELVAVISWGGGNTYYADSVKRRFTISRDNAKNTVYLQMNILKPEDTAVYYCAADPISEFYWGVKDRYDYWGQGTQVTVSS | low polyreactivity
6 | QVQLVESGGGLVQAGGSLRLSCAASGRTFRRYAMGWYRQAPGKERELVAAISGDGSTHYADSVKGRFTISRDNAKNTVYLQMNSLKPEDTAVYYCAADYTDWYYVNYPAAPYRYDYWGQGTQVTVSS | high polyreactivity
7 | QVQLQGSGGGLAQAGDSLRLSCAASGTIFSEYNNGLVSPGAGQRTRTCCRYWCWGNTYYADSAKGRFTTSRDNANNTVYLQKNSLIPEDTAVYYCAFNRPYPSRHIYRGQGTQVTVSS | high polyreactivity
8 | QVQLVESGGGLVQAGGSLRLICAASGFIIYSYAMGWYRQAPGKERELVAGITSDGRTYYADSVKGRFTISRDNAKNTVYLQMNSQKPEDTAVSYCAARYYLFYRVSPYYYWGQGTQVTVSS | low polyreactivity
9 | QVQLVESGGGLVQAGGSLRLSCAASGRTFYWYAMGWYRQAPGKERELVAAIRKTDTSTYYADSVKGRFTISRDNAKNTVYLQMNSLKPEDTAVYYCAARSTYSSGKYGYKYDYWGQGTQVTVSS | high polyreactivity
10 | QVQLVESVGGLVQAGGSLSLSCAASGRMLVRNAMGWYRQAAGKERELVAVIRWSGGRTSYADSVKGRFTISRDNAKNTVYLQMNSLKPEDTAVYYCNKGGSYPTSNYKSYWVGVDYCGQGTQVTVSS | low polyreactivity
11 | QVQLVESGGGLVQAGGSLRLSCAASGRTFRGNTMGWYRQAPGKERELVAAISRGGSTNYADSVKGRFTISRDNTKNTVYLQMNSLTPEDTAVYYCAKDRYVRWGRTFEFDYWGQGTQVTVSS | low polyreactivity
12 | QVHLVDSGGGLVQAGGRLRLSCAASASIFLIYAMGWYRQAPGQERELVAAINYSGVRTYYADSVKGRFTISRDNAKNTVYLQMNSLKPEDSAVYYCAVSRGGAYYQYGYWGQGTQVSVSS | high polyreactivity
13 | QVQLVESGGGLVQAGGSLRLSCAASGRIFRWYAMGWYRQAPGKERELVAAISRSGTSTYYADSVKGRFTISRDNAKNTVYLQMNSLKPEDTAVYYCAADAVIFGMDYWGQGTQVTVSS | low polyreactivity
14 | QVQLVESGGGLVQAGGSLRLSCAASGLTLYQYSMGWYRQAPGKERELVAAIPTSGSTYFADSVKGRFTISRDNAKNTVYLQMNSLKPEDTAVYYCAADVYYVDTLSGYRYGYDYWGQCTQVTVSS | low polyreactivity
15 | QVQLVESGGGLVQAGGSLRLSCAASGSIFPIYAMGRYRQAPGKERELVAAIDSSGGSTYYADSVKGRFTISRDNAKNTVYLQMNSLKPEDTAVYYCAADFGSKSTPYDYWGQGTQVTVSS | low polyreactivity
16 | QVQLVESGGGLVQAGGSLRLSWAASGSTFDYYAMGWYRQAPGKERELVAAIRWSDGSTYYADSVKGRFTISRDNAKNTVYLQMNSLKPEDTAVYYCAADALYWIGRMDYWGQGTQVTVSS | low polyreactivity
17 | QFQLVESGGGLVQAGGTLRLSCAASGSTFYHYPLGWYRQAPGTVRQLVARITSSSGSTYYADSVKGRFTISRDNAKNTVYLQMYSLKPEDTAVYYCAASYYIVPYLTYGYWGQGTQVTVSS | low polyreactivity
18 | QVQLVESGGGLVQAGGSLRLSCAASGRIFASNAMGWYRQAPGKERELVAAIDQGGGSTYYADSVKGRFTISRDNAKNTVYLQMNSLKPEDTAVYDCAADYISAYPRLYNYWGQGTQVTVSS | low polyreactivity
19 | QVQLVESGGGLVQAGGSLSLSCAASGYIFAVYAMGWYRQAPGKEREFVAVITWRGGSTYYADSVKGRFTISRDNAKNTVYLQMNSLKPEDTAVYYCAARWHFLTSSRFDYWGQGTQVTVSS | high polyreactivity
20 | QFQLVESGGRLVQPGGSLRLSCAASGGIFYGYAMGWYRKAPGKERELVAAISSTGGRTYYADSVKGRFTISRDNAKNTVYLQMNSLKPEDTAVSYCAAEDFTRQFEYWGQGTQVTVSS | low polyreactivity
21 | QGKRVESGRGLVQAGGILRLSCAASGRTFYYYAMGWYRQSPGKERELVASITWSGGSTYYADSVKGRFTISRDNAKNTVYLQMNSLKPEDTAVYYCAARFVYYGVDYWGQGTQVTGSS | high polyreactivity
22 | QVQHVESGGGLVQAGGSLRLSCAASGNIFDRNAMGWDRQARGKERELVAAISRSGGRTYYADSVKGRFTISRDHAKNTVYLQMNSLKPEDTAVYYCNRRYRKYSSAKYDYWGQGTQVTVSS | high polyreactivity

Row | Sequence | polyreactivity (PSR sort gate)
23 | QVQLVESGGGLVQAGGSLRLSCAASGRTFFFYAMGWYRQAPGKERELVAGITSRGTRTYYADSVKGRFTISRDNAKNTVYLQMNSLKPEDTAVYYCATDDCRDWLNYWGQGTQVTVSS | low polyreactivity
24 | QVQLVESGGGLVPAGGSLRLSCAASGSTGFNAMGWYRQAPGKERELVAAINYSDGSTYYADSVKGRFTISRDNAKNTVYLQMNSLKPEDTAVYYCNAGSSKDDSYYSYGYWGQGTQVTVSS | low polyreactivity
25 | QVQLVESGGGLVQAGGSLRLSCAASGRIFNTYAMGWYRQAPGKERELVAAITSSGGSTYYADSVKGRFTISRDNEKNTVYLQLNSLKPEDTAVYYCAKPWYVRGGSSKYVYWGQGTQVTVSS | high polyreactivity
26 | QVQLVESGGGLVQAGGSLRLSCAASGFTFVRYVMGWYRQAPGKERELVAAISRSGGSTHYADSVKGRFTISRDNAKYTVYLQMNSLKPEDTAVYYCAAASPRWPGQGDYWGEGTQVTVSS | high polyreactivity
27 | QVQLVESGGGLVQAGGSLRLSCAASGSIFFLYAMGWYRQAPGKERELVAAISGGGGSTYYADSVKGRFTISRDNAKNTVYLQMNSLKPEDTAVYYCDALSKTRGGYWGQGTQVTVSS | high polyreactivity
28 | QVQLVESGGGLVQAVGSLRLSCAASGSIFAVNTIGWYRQAPGKERELVASISQRGSSTYYADSVKGRFTISRDIAKNTVYLQMNSLIPEDTAVYYCAVVQRYWYAGIVPYDYWGQGTQVTVSS | high polyreactivity
29 | QVQLVESGGGLVQAGGSLRLSCAASGITFDDYDMGWYRQAPGKEREFVAAISFSGSSTYYADSVKGRFTISRDNAKNTVYLQMNSLKPEDTAVYYCNADYVYSGGRYYGKDYWFDYWGQGTQVTVSS | low polyreactivity
30 | QVQLVESGGGLVQARGSLRLSCAASGSIFDGNAMGWYRQAPGKERELVAAITWRGTRTYYADSVKGRFTISRDNAKNTVYLQMNSLKPEDTAVYYCNKKWYPYLEHDYWGQGTQGTVSS | high polyreactivity
31 | QVRLVESGGGLVQAGGSLRLSCAASGRIFVYNAMGWYRQPPGKERELVASISWSGDSTYADSVKGRFTISRDNAKNTVYLQMNSLKPEDTAVYYCAAYSQADYQNMDYWGQGTQVTVSS | low polyreactivity
32 | QVQLVESGGGLVQAGGSLRLSCAASGSIFQHYAMGWYRQAPGKERELVAAISYDTTSTYYADSVKGLFTISRDNAKNTVYLQMNSLKPEDPAVYYCNTDPEVYGPFQYDYWGQGTQVTVSS | low polyreactivity
33 | QVQLVESGGGLVQAGGSLRLSCAASGRTFHVYAMGWYRQAPGKEREFVAFISRRGGSTYYADSVKGRFTISRDNAKNTVYLQMNSLKPEDTAVYYCKARYVTSRSAYQRGGDYWGQGTQVTVSS | high polyreactivity
34 | QFQLVESGGGLVQAGGSLRLSCAASGRIFSLNAMGWYRQAPGKESELVAAITSTGGTTYYADSVKGRFTISRDNAKNTVYLQMNSLKPEDTAVYYCAADYYSYAWHGWYYSDHYDYWGQGTQVTVSS | low polyreactivity
35 | QVQLVESGGGLVQAGGSLRLSCAASGFIFRYYAMGWYRQAPGKERELVAAISWSGTRTFYADSVKGRFTISRDNAKNTVYLQMNSLKPEDTAVYYCAAETTGYDSYIQYEYWGQGTQVTVSS | high polyreactivity
36 | QVQLVESGGGLVQAGGSLRLSCAASGSTFLNYAMGWYRQAPGKERELVAAITGSGGRTYYADSVKGRFTISRDNAKNTVYLQMNSLKPEDTAVYYCAASATYDPHDYWGQGTQVTVSS | high polyreactivity
37 | QVQLVESGGGLVQAGGSRRLSCAASGSIFATYAIGWYRQAPGKERELVAAISWSGGRTYYADSVKGRFTISRDNAKNTVYLEMNSLKPEDTAVYYCNAVTLLGTRGYGYWGQGTQVTVSS | high polyreactivity
38 | QVQLVESGGCLVQAGGSLRLSCAASGYTIRYYSMGWYRQAPGKERELVAAISYSGGSTYYADSVKGRFTISRDNAKNTVYLQMNIMKPEDTAVYYCDAGFSLYLGFEYWGQGTQVTVSS | high polyreactivity
39 | QVQLVESGGGLVQAGGSLRLSCAASGRILGRYAMGWYRQAPGKERELVAAITSGGNTTYADSVKGRFTISRDNAKNTVYLQMNSLKPEDTAVYYCAAYSYTQLNLMDYWGQGSQVTVSS | low polyreactivity
40 | QVQLVESGGGLVQAGGSLRLSCAASGFTFVYYVMGWYRQAPGKERELVAAINAGGGSTYYADSVKGRFTISRDNAKNTVYLQMNSLKPEDTAVYYCNARVRVRLGRKWSSYYYWGQGTQVTVSS | high polyreactivity
41 | QVQLVESGGGLVQAGGSLRLSCAASGRTFGGNAMGWNRHAPGKERELVAGINISGGSTNYADSVKGRYTISRDNAKNTVYLQMNSLKPEDSAVYYCNADTAVYAWDDDYWGQGTQVTVSS | low polyreactivity
42 | QVQLVVSGPGLFQAGGSLRISCAPSGFIFYNYAMGWYRQAPGKERELVAAISRSGGSTYYADSVKGRFTISRDNAKNTVYLQMNSLKPEDTAVYYCKVGYGRGSTIGGYDYWGQGTQVTVSS | high polyreactivity
43 | QVQLQESGGGLVQAGGSLRLSCAASGTIFRFRYMGWHRQAPGKERELVAGINGGTTTYYADSVIGRFTISRDNAIKTVYLQMNSLKPDDTAVYNCAAGASRLTYYDYWGQGTQVTVSS | low polyreactivity

— the nanobody polyreactivity screen of Harvey et al. (2022)
